These results are taken from article PMC4776140, “Stimulation of translation by human Unr requires cold shock domains 2 and 4, and correlates with poly(A) binding protein interaction” (Scientific Reports, 2016).

The target in the test is T1, GST-tagged PABP1 (UniProt P11940 1-636).
T1 construct: also called GST-PABP1; source: E. coli BL21(DE3) from pGEX2T, purified (glutathione Sepharose 4B)
The experiment in a line: pull-down; as the GST pull-down, with 0.1 mg/ml RNase A added to the TnT reaction, 30 min at 30 °C before pull down; value relative to no RNase A. Particulars: one partner purified.

B1: wild type Unr, in vitro translated, 35S-labelled (natural protein, human, UniProt O75534-2 1-767, looked up)
chain: MSFDPNLLHNNGHNGYPNGTSAALRETGVIEKLLTSYGFIQCSERQARLFFHCSQYNGNLQDLKVGDDVEFEVSSDRRTGKPIAVKLVKIKQEILPEERMNGQEVFYLTYTPEDVEGNVQLETGDKINFVIDNNKHTGAVSARNIMLLKKKQARCQGVVCAMKEAFGFIERGDVVKEIFFHYSEFKGDLETLQPGDDVEFTIKDRNGKEVATDVRLLPQGTVIFEDISIEHFEGTVTKVIPKVPSKNQNDPLPGRIKVDFVIPKELPFGDKDTKSKVTLLEGDHVRFNISTDRRDKLERATNIEVLSNTFQFTNEAREMGVIAAMRDGFGFIKCVDRDVRMFFHFSEILDGNQLHIADEVEFTVVPDMLSAQRNHAIRIKKLPKGTVSFHSHSDHRFLGTVEKEATFSNPKTTSPNKGKEKEAEDGIIAYDDCGVKLTIAFQAKDVEGSTSPQIGDKVEFSISDKQRPGQQVATCVRLLGRNSNSKRLLGYVATLKDNFGFIETANHDKEIFFHYSEFSGDVDSLELGDMVEYSLSKGKGNKVSAEKVNKTHSVNGITEEADPTIYSGKVIRPLRSVDPTQTEYQGMIEIVEEGDMKGEVYPFGIVGMANKGDCLQKGESVKFQLCVLGQNAQTMAYNITPLRRATVECVKDQFGFINYEVGDSKKLFFHVKEVQDGIELQAGDEVEFSVILNQRTGKCSACNVWRVCEGPKAVAAPRPDRLVNRLKNITLDDASAPRLMVLRQPRGPDNSMGFGAERKIRQAGVID
modifications: radiolabelled with [35S] methionine
notes: numbers count on: Unr protein isoform 2; Same pET21d plasmids as for the histidine-tagged recombinant Unr; also called wt Unr; CSDE1; source: in vitro transcribed/translated from pET21d plasmid (TnT Quick Coupled System, Promega), not purified
For the molecule B1, the “percent pull-down with RNase A relative to no RNase A” value came out at 79%.
